Broadly, the Kd is a measure of binding affinity in units of concentration.

Results on two molecules are retold here after USRE47103 (AGENSYS, dated 2018).

In assay [1] the target is T1, 158P1D7 protein expressed on the cell surface (human, UniProt Q9H5Y7 27-841).
T1 construct: No signal peptide limits are stated; also called SLITRK6; SLITRK-6
T1 sequence: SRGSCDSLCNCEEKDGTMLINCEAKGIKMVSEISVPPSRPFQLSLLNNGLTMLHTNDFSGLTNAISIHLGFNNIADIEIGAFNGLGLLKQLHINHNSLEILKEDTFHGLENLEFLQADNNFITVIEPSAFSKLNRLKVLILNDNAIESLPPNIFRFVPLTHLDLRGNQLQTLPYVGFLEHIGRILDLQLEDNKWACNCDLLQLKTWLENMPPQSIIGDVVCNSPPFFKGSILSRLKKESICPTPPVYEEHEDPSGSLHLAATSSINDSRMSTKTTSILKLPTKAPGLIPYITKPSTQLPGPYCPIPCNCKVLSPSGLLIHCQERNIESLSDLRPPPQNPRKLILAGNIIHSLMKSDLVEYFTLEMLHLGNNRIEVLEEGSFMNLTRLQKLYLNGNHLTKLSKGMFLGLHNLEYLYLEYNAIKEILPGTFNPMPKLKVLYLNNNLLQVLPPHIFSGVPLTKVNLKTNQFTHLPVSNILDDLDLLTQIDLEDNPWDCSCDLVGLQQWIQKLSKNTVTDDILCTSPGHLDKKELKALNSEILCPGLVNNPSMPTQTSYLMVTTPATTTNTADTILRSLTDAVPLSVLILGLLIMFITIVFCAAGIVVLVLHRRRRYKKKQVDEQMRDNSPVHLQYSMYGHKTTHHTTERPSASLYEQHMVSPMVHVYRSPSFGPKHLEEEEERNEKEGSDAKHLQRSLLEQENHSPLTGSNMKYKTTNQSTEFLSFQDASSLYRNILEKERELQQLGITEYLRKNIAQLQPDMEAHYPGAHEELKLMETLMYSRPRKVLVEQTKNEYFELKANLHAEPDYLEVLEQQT
Put plainly: binding to 158P1D7 expressing cells; method not given.

For assay [2], the target named is T1, 158P1D7 protein expressed on the cell …. Put plainly: FACS saturation binding on SW780 cells, one site binding fit (Graphpad Prism).

B1: 158P1D7 MAb Ha15-10ac12 (antibody, human IgG2, kappa, V domains shown)
VH: QVQLVESGGGVVQPGRSLRLSCAASGFTFSSYGMHWVRQAPGKGLEWVAVIWYDGSNQYYADSVKGRFTISRDNSKNTLFLQMHSLRAEDTAVYYCARGLTSGRYGMDVWGQGTTVTVSS
VL: DIVMTQSPLSLPVTPGEPASISCRSSQSLLLSHGFNYLDWYLQKPGQSPQLLIYLGSSRASGVPDRFSGSGSGTDFTLKISRVEAEDVGLYYCMQPLQIPWTFGQGTKVEIKR
notes: Fully human IgG2 kappa antibody from XenoMouse; It was tested both as material purified from the hybridoma and as recombinant material from CHO-K1SV cells; also called Ha15-10ac12 MAb
B1: in assay [1], the binding result is on record as “binds”.

B2: Ha15-10ac12vcMMAE (other)
heavy: QVQLVESGGGVVQPGRSLRLSCAASGFTFSSYGMHWVRQAPGKGLEWVAVIWYDGSNQYYADSVKGRFTISRDNSKNTLFLQMHSLRAEDTAVYYCARGLTSGRYGMDVWGQGTTVTVSSASTKGPSVFPLAPCSRSTSESTAALGCLVKDYFPEPVTVSWNSGALTSGVHTFPAVLQSSGLYSLSSVVTVPSSNFGTQTYTCNVDHKPSNTKVDKTVERKCCVECPPCPAPPVAGPSVFLFPPKPKDTLMISRTPEVTCVVVDVSHEDPEVQFNWYVDGVEVHNAKTKPREEQFNSTFRVVSVLTVVHQDWLNGKEYKCKVSNKGLPAPIEKTISKTKGQPREPQVYTLPPSREEMTKNQVSLTCLVKGFYPSDIAVEWESNGQPENNYKTTPPMLDSDGSFFLYSKLTVDKSRWQQGNVFSCSVMHEALHNHYTQKSLSLSPGK
light: DIVMTQSPLSLPVTPGEPASISCRSSQSLLLSHGFNYLDWYLQKPGQSPQLLIYLGSSRASGVPDRFSGSGSGTDFTLKISRVEAEDVGLYYCMQPLQIPWTFGQGTKVEIKRTVAAPSVFIFPPSDEQLKSGTASVVCLLNNFYPREAKVQWKVDNALQSGNSQESVTEQDSKDSTYSLSSTLTLSKADYEKHKVYACEVTHQGLSSPVTKSFNRGEC
modifications: vcMMAE (Val-Cit linker with monomethyl auristatin E) on cysteine sulfur atoms after partial reduction of disulfides with TCEP; positions not given; vcMMAE (Val-Cit linker with monomethyl auristatin E) on cysteine sulfur atoms after partial reduction of disulfides with TCEP; positions not given; preferred p between 3.5 and 3.7 drugs per antibody
notes: also called 158P1D7 ADC; Ha15ac12vcMMAE
In turn, B2 gave a Kd in assay [2] of 5 pM.
